Test results published in patent US20230218721A1, “INCRETIN ANALOGUE, PREPARATION METHOD THEREFOR, AND USE THEREOF” (ZHEJIANG DOER BIOLOGICS CO., LTD., priority 2020, published 2023).

Molecular target: human glucagon-like peptide-1 receptor (GLP-1R) (human (printed as 'Humanized')) (UniProt P43220)
Experiment: cell-based or functional assay

human glucagon-like peptide-1 receptor (GLP-1R) (human (printed as 'Humanized')), sequence (P43220 24-463): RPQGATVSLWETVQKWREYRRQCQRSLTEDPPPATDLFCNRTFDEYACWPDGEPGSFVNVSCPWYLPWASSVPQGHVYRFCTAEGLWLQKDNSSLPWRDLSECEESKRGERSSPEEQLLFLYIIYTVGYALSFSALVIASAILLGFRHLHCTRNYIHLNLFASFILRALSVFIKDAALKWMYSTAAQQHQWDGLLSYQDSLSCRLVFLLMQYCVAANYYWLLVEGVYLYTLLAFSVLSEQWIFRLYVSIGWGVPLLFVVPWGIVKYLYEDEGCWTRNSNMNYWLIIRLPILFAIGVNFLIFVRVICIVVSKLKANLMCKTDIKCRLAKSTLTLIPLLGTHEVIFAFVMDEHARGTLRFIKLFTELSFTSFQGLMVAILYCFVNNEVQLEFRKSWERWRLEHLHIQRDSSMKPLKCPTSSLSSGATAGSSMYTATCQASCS

GLP-1R agonist activity (EC50, nM): 0.01 nM
Substance: Dulaglutide (Trade name: Trulicity) (Fc fusion)
